Several values for one entry are separate records, joined by “and”; a condition that tells them apart may be missing. Equal values may be shown once. Entries after “also recorded” stand apart in the source; their conditions may differ.
How the values were obtained:
[1] = test system: CD4 T cells, CD8 T cells; experiment: Single-dose PK/PD study in mice: CD4 and CD8 T cells in blood; type: in vivo, C57BL/6 mice; conditions: single SC 0.3 mg/kg
Source text: Following administration, blood and spleen samples are collected at days 1-7 and day 10 post administration. More particularly, at each time point, blood and spleen samples are collected; samples are pooled and assessed for pharmacodynamic analysis of drug action on lymphocyte cell populations by flow cytometry (see e.g. Example 5), expressed as a fold change relative to vehicle control. In addition to changes in cell numbers, functional markers and markers of activity are quantified. Finally, plasma drug concentration is also assessed.

[2] = Single dose pharmacokinetics in mice; type: in vivo, C57BL/6 Mice
[3] = test system: MRL/MpJ-Faslpr mice; experiment: Mouse model of systemic lupus erythematosus (SLE); type: in vivo
Method: The MRL/MpJ-Faslpr mouse model develops an autoimmune disease that reflects pathologies of human SLE, including lymph node enlargement, increased IgG levels, antinuclear antibody production, proteinuria, and kidney failure caused by inflammation of the glomeruli. […] On dosing days, a suitable quantity of test article is withdrawn and diluted with vehicle to arrive at the desired dosing concentration (0.03 mg/kg dose and 0.3 mg/kg dose); dose volume was 5 mL/kg. Animals used for the study are MRL/MpJ-Faslpr mice and MRL/MpJ naive, female mice, aged from 6-8 weeks. Animals are assigned to treatment groups by randomization. Treatment groups are described in Table 13 below. 45 MRL/MpJ-Faslpr mice are randomized into 3 groups (15 each for Groups 2-4) based on body weight and level of protein content in urine before the commencement of the experiment. Animals in Groups 2-4 receive vehicle or test article delivered subcutaneously as described in Table 6. Group 1-MRL/MpJ mice receive the vehicle as a negative control. Three (3) days after the first dose administration on Week 8, 3 mice from Groups 2-4 are humanely sacrificed and blood samples were collected and processed. Body weights are measured twice a week from the commencement of the study and continued throughout. Skin lesion pictures were taken when first observed and then at one week intervals. Urine is obtained the day before dosing (at baseline) and then collected weekly thereafter. Protein levels in the urine are measured using a Siemens Clinitek Status Analyzer. On sacrifice day (3 days after the last dose at the end of Week 20), all mice are anesthetized by intraperitoneal injection of chloral hydrate (50 mg/kg). Blood samples are collected, and centrifuged at 10000 r/min for 10 min to obtain serum samples. The serum is stored at −80° C. until clinical biochemistry testing. Serum samples (100 μl) are analyzed for anti-dsDNA level by ELISA (Mouse Anti-dsDNA IgG-specific ELISA Kit, Alpha Diagnostic International, Cat. No. 5120) and the serum tested for BUN concentration using a Hitachi 7020 Automatic Biochemistry Analyzer. For lymphocyte analysis, blood samples are collected in EDTA-K tubes and tested for CD3/CD4/CD8/Treg/NK/B cell % by flow cytometry. […] This study further elucidates the effect of RUR-IL-2-induced Tregs on control of the physiological immune response and disease progression in a representative animal model of SLE.

[4] = test system: cGVHD model; experiment: cGVHD model, repeat administration; type: in vivo
[5] = test system: CD56+ NK cells; experiment: Phase I single ascending dose study in healthy volunteers: NK cells; type: in vivo, human
Method: (§1) A double-blind, randomized, placebo-controlled study is conducted to evaluate the safety, tolerability, pharmacokinetics, and pharmacodynamics of single ascending low sub-cutaneous doses of an RUR20kD-IL-2 composition (RUR20kD-IL-2) in healthy volunteers. […] Twelve subjects are randomized to each dose cohort, nine of whom received a single subcutaneous dose of RUR20kD-IL-2 while three received placebo. […] The drug product is supplied in single-use glass vials and stored at 2-8° C. […] Placebo is a commercially available 0.9% sodium chloride solution. A starting dose of 0.3 μg/kg is chosen using the minimally anticipated biological effect level (MABEL) approach and is supported by the no observed adverse effect level (NOAEL) in the most sensitive species from nonclinical toxicology studies.
(§2) The primary objective of the study is to evaluate the safety and tolerability of RUR20kD-IL-2 administered as a single subcutaneous dose. […] In a first phase of the study, immune markers are tested pre-dose up to 20 hours post-dose. Specifically, Tregs, CD4^+-T cells, CD8^+-T cells, natural killer (NK) cells, cytokines, soluble CD25, and RNA are tested in RUR20kD-IL-2- and placebo-receiving cohorts. In subsequent phases, the same immune markers are also tested at 4-, 5-, 6-, 7-, 8-, 10-, 12-, 15-, 18-, 20-, 25-, 30-, 40, and 50-days post-dose.

[6] = Phase I single ascending dose study in healthy volunteers: safety and tolerability; type: in vivo, human; conditions: single SC doses
Method: as §1, §2

[7] = C57BL/6 mice, single SC 0.03 mg/kg, plasma
[8] = C57BL/6 mice, single SC 0.1 mg/kg, plasma
[9] = C57BL/6 mice, single SC 0.3 mg/kg, plasma
[10] = repeat administration over 12 weeks

For “(1,3-bis(methoxypoly(ethylene glycol)10kDcarbamoyl)-2-propanoxy)-4-butanamide)interleukin-2) [RUR20kD-IL-2]”, the “changes to CD4 T cells” value [1] was “modest”, the “changes to CD8 T cells” value [1] was “slight decreases” and the AUCinf [2, 7] was 22900 ng·h/mL. For the same substance, the AUClast [2, 7] was 21500 ng·h/mL, the Cmax [2, 7] was 333 ng/mL and the Half-life [2, 7] was 53.8 h. For the same substance, the MRTinf [2, 7] was 83 h, the tmax [2, 7] was 7.92 h and the AUCinf [2, 8] was 102000 ng·h/mL. The AUClast [2, 8] was 97400 ng·h/mL, the Cmax [2, 8] was 1140 ng/mL and the Half-life [2, 8] was 53.8 h. For the same substance, the MRTinf [2, 8] was 81.4 h, the tmax [2, 8] was 7.92 h and the AUCinf [2, 9] was 245000 ng·h/mL. For the same substance, the AUClast [2, 9] was 238000 ng·h/mL, the Cmax [2, 9] was 3330 ng/mL and the Half-life [2, 9] was 44.4 h. The MRTinf [2, 9] was 71.5 h, the tmax [2, 9] was 24 h and the tmax ([2]; mice, SC, range over doses) was 7.92 to 24 h. For the same substance, the half-lives ([2]; mice, range over doses) was 1.85 to 2.24 days, the “protein levels in urine (biomarker of kidney damage)” value ([3]; 0.3 mg/kg s.c. twice weekly, week 8 to week 20) was “nearly the same levels as observed in normal mice” and the Treg elevation [3, 10] was “sustains Treg elevation”. The blood urea nitrogen [3, 10] was “reduces blood urea nitrogen”, the “urine protein levels and kidney histopathology” value [3, 10] was “returns urine protein levels and kidney histopathology to normal” and the “Tregs and germinal center B cells in spleen” value [4] was “increases Tregs and decreases germinal center B cells in spleen”. The lung dysfunction [4] was “reverses lung dysfunction”, the “increase in NK cells” value ([5]; highest dose tested (28.0 μg/kg)) was 2 fold and 3.5 fold and the “percentage of CD56+ NK cells expressing Ki67” value ([5]; single SC 3.0 μg/kg) was ~10%. For the same substance, the “percentage of CD56+ NK cells expressing Ki67” value ([5]; single SC 6.0 μg/kg) was 20-30%, the “percentage of CD56+ NK cells expressing Ki67” value ([5]; single SC 9.0 μg/kg) was 30-40% and the “percentage of CD56+ NK cells expressing Ki67” value ([5]; single SC 13.5 μg/kg) was 30-40%. For the same substance, the “percentage and absolute numbers of NK cells” value ([5]; single SC 13.5 and 20.0 μg/kg) was “small increase in the percentage and absolute numbers of NK cells”, the adverse events [6] was “primarily limited to mild or moderate (Grade 1 or 2) injection site reactions; also recorded: primarily limited to mild (grade 1) injection site reactions” and the anti-drug antibodies [6] was “no elicitation of anti-drug antibodies; also recorded: none have been detected”. The “dose-limiting toxicities, serious adverse events, deaths, clinically significant abnormalities” value [6] was “No dose-limiting toxicities (DLTs), serious adverse events (SAEs), deaths, or clinically significant abnormalities; also recorded: no dose-limiting toxicities, deaths, or adverse events leading to study discontinuation; also recorded: no dose-limiting toxicities, serious adverse events, deaths, or clinically significant abnormalities in vital signs, electrocardiograms, or laboratory test values”.
